Measurements: article PMC3331935 (Developmental Cell, 2012)

Experiments:
Assay in all cases: alkaline phosphatase fusion protein binding assay
[1] = molecular target: Notch3 (UniProt Q61982 40-2318)
[2] = molecular target: Notch1, transfected into HEK293 cells and immunoprecipitated on protein G beads (UniProt Q07008 19-2531)
[3] = molecular target: Notch2 (UniProt O35516 26-2473)
[4] = molecular target: Notch4 (UniProt P31695 21-1964)

Notch2, sequence (O35516 26-2473): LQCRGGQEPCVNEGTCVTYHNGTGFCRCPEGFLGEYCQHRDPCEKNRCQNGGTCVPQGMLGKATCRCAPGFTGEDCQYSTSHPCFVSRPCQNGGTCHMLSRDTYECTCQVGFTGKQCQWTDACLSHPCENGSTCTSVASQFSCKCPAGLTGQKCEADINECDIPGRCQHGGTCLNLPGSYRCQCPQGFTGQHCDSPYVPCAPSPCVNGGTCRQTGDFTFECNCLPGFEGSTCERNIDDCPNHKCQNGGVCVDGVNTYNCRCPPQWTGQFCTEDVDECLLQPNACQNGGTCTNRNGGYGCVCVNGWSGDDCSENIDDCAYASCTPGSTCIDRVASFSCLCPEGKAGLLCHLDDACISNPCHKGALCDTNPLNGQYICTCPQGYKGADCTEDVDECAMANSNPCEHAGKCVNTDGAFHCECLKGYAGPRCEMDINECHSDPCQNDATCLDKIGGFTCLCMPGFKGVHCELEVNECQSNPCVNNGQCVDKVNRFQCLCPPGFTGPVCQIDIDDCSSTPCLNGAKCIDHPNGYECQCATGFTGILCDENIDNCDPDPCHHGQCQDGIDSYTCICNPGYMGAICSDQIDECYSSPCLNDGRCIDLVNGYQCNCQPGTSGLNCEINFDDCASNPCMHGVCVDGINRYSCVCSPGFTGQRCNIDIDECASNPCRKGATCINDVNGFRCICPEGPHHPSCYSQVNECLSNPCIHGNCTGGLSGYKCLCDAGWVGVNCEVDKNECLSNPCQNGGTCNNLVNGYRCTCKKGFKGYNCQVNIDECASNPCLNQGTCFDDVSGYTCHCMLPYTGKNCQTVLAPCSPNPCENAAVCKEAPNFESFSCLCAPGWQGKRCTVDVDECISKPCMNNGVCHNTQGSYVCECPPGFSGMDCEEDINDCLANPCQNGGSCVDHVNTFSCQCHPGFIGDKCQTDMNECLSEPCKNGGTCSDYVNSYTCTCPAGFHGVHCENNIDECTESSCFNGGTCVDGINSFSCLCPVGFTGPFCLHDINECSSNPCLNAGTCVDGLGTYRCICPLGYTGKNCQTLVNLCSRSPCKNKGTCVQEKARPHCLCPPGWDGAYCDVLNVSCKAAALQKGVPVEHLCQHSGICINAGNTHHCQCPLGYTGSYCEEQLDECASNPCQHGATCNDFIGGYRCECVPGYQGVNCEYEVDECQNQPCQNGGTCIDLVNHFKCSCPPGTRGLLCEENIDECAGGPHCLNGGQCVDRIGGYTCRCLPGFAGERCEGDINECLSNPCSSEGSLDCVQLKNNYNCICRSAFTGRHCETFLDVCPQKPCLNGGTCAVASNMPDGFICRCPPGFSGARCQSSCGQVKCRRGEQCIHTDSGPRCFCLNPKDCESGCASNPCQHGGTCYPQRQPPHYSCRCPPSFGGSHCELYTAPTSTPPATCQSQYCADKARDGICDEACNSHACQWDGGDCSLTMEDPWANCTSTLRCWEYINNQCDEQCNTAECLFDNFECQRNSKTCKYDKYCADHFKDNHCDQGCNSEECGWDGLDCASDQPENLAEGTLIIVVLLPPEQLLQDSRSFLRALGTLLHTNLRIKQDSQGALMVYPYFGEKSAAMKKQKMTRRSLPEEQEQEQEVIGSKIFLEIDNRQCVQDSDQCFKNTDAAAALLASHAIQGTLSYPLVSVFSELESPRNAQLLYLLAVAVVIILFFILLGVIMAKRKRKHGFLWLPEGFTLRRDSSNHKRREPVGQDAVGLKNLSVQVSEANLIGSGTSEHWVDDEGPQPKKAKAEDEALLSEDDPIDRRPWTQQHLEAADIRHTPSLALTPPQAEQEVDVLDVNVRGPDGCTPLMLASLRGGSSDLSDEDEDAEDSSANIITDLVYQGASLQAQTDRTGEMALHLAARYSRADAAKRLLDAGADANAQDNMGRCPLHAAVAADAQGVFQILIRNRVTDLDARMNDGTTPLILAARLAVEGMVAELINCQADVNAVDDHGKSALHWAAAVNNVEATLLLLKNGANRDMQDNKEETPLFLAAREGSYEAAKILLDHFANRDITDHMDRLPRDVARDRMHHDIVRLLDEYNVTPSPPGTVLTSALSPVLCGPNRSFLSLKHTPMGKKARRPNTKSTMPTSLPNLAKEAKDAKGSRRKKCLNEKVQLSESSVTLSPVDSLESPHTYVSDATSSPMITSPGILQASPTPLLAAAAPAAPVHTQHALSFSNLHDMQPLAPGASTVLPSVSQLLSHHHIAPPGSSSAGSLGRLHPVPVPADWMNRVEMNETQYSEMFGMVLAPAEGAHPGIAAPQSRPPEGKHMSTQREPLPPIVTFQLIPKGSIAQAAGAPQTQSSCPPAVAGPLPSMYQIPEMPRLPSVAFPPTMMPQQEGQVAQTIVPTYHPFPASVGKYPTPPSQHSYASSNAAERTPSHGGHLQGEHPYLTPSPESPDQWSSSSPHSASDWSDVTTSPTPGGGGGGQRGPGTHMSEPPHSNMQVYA
Notch1, transfected into HEK293 cells and immunoprecipitated on protein G beads, sequence (Q07008 19-2531): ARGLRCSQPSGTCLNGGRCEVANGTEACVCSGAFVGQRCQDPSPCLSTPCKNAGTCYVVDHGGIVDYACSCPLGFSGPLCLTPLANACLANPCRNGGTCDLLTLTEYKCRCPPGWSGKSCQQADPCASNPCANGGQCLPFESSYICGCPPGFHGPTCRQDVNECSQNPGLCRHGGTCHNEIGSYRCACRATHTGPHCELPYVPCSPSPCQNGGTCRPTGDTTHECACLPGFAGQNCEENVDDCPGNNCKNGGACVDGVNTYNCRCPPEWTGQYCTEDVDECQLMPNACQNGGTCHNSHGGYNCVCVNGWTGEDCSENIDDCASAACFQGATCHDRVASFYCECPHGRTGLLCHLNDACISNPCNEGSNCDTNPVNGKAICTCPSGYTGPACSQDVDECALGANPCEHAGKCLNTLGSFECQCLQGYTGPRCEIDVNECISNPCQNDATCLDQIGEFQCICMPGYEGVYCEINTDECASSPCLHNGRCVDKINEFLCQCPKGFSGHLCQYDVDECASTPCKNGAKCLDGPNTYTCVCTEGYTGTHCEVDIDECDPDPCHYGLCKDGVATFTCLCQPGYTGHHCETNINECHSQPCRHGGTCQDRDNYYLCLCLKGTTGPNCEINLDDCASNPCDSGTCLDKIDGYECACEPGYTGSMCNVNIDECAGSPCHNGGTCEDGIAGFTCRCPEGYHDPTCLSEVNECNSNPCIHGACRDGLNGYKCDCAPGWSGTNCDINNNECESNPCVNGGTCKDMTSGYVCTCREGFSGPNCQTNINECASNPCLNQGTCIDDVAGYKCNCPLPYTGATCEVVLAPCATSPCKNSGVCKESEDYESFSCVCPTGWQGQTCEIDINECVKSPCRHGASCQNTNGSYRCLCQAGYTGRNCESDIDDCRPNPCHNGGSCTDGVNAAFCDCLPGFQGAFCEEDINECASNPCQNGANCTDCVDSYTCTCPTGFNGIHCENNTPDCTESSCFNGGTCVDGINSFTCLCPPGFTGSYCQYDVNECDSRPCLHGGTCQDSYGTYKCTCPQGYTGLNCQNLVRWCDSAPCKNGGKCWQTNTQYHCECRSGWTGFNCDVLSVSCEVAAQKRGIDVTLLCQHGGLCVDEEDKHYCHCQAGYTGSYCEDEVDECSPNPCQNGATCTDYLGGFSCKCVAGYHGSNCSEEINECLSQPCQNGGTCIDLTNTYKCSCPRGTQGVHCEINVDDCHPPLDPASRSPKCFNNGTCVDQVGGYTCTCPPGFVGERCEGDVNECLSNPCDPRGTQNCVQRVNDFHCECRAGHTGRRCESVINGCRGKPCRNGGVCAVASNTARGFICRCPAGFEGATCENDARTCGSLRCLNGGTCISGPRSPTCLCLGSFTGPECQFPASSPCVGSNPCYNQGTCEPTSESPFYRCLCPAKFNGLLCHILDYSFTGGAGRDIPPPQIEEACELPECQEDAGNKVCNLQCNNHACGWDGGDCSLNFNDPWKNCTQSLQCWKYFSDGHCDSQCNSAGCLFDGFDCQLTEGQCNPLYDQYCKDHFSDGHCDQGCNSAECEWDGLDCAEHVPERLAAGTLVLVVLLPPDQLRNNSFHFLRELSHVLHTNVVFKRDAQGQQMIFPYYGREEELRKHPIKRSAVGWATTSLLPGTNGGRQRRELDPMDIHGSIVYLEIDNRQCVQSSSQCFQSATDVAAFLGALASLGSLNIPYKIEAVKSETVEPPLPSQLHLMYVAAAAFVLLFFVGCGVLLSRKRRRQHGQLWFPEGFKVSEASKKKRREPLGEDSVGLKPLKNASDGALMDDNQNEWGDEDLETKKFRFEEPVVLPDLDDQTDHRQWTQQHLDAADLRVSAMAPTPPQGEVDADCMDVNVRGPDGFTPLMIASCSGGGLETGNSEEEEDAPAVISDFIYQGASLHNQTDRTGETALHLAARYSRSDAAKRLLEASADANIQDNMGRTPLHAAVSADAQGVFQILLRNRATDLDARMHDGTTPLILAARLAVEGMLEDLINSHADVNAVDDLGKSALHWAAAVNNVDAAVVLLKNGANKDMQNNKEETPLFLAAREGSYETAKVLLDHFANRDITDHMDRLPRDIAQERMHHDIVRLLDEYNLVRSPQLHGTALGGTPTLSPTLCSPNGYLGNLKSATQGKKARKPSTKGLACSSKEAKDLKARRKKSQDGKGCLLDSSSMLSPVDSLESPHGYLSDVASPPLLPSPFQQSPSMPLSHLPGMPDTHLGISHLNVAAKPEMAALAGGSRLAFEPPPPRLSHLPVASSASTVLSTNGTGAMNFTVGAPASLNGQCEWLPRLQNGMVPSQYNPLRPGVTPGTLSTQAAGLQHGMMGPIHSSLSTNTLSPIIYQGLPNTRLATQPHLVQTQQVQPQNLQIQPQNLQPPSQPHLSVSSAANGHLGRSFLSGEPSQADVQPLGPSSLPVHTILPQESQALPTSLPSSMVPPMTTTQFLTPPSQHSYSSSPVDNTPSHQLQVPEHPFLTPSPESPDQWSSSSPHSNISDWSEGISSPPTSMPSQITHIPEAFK

B1: alkaline phosphatase tagged Botch (Botch-N-AP) (natural protein, UniProt Q8R3J5 1-223, looked up)
chain: MKQESASQSTPPPSLSPAPSSAQPSWGDGDPQALWIFGYGSLVWKPDFAYSDSRVGFVRGYSRRFWQGDTFHRGSDKMPGRVVTLLEDREGCTWGVAYQVRGEQVNEALKYLNVREAVLGGYDTKEVTFYPQDTPDQPLTALAYVATPQNPGYLGPAPEEVIATQILACRGFSGHNLEYLLRLADFMQLCGPQAQDEHLEAIVDAVGTLLPCSYLPEQPLALT
- Kd [1]: 3.3 nM
- Kd [2]: 3.3 nM
- Kd [3]: 8.8 nM
- Kd [4]: 6.3 nM
